Experiment [1] has as its target CENP-A^TAP (carboxy-terminally TAP-tagged CENP-A) (human) (UniProt P49450). Put plainly: co-IP.
In experiment [2] the target is CENP-A^LAP (CENP-A tagged at an endogenous allele with a LAP tag) (human (endogenous in HeLa)) (UniProt P49450). Put plainly: co-IP.

In experiment [1], “histone H3 (from UniProt P68431 1-136) (natural protein)” came in with a fold depletion of histone H3 in the purified complexes against the input of 6250 fold.
Turning to “untagged endogenous CENP-A (from UniProt P49450 1-140) (natural protein)”, the stoichiometry N (CENP-A molecules in a complex) in experiment [2] was 2; in experiment [1], > 2. In experiment [1], this substance came in with a percent of the total CENP-A in the affinity-purified complexes of 9 to 13%.

The values are drawn from article PMC5350519.
